Measurements taken from patent US20230399371A1, “IL-12 COMPOSITIONS AND METHODS OF USE THEREOF” (published 2023).

Target: IL-12Rβ1/IL-12Rβ2 receptor complex (human, UniProt P42701)
Test: cell-based or functional assay

IFN-γ secretion by NK92MI cells (ELISA, 48 hrs): ~70 fold lower
B1: P36693671 (other)
chain 1: QVQLVQSGAEVKKPGASVKVSCKASGYTFTMNIIHWVRQAPGQGLEWMGWIHPGSGAIKYAQKLQGRVTMTTDTSTSTAYMELRSLRSDDTAVYYCARHGGTGRGAMDYWGQGTLVTVSSASTKGPSVFPLAPSSKSTSGGTAALGCLVKDYFPEPVTVSWNSGALTSGVHTFPAVLQSSGLYSLSSVVTVPSSSLGTQTYICNVNHKPSNTKVDKKVEPKSCDKGGGGSSGRSDNRGGGGSIWELKKDVYVVELDWYPDAPGEMVVLTCDTPEEDGITWTLDQSSEVLGSGKTLTIQVKEFGDAGQYTCHKGGEVLSHSLLLLHKKEDGIWSTDILKDQKEPKNKTFLRCEAKNYSGRFTCWWLTTISTDLTFSVKSSRGSSDPQGVTCGAATLSAERVRGDNKEYEYSVECQEDSAAPAAEESLPIEVMVDAVHKLKYENYTSSFFIRDIIKPDPPKNLQLKPLKNSRQVEVSWEYPDTWSTPHSYFSLTFSVQVQGQDQDEKKDRVFTDKTSATVICRKNASISVRAQDRYYSSSWSEWASVPCS
chain 2: EIVLTQSPGTLSLSPGERATLSCRASQSVSTSAYSYMHWYQQKPGQAPRLLIYLASNLESGIPDRFSGSGSGTDFTLTISRLEPEDFAVYYCQQSRELPYTFGQGTKLEIKRTVAAPSVFIFPPSDEQLKSGTASVVCLLNNFYPREAKVQWKVDNALQSGNSQESVTEQDSKDSTYSLSSTLTLSKADYEKHKVYACEVTHQGLSSPVTKSFNRGECGGGGSPLGLAGRNLPVATPDPGMFPCLHHSQNLLRAVSNMLQKARQTLEFYPCTSEEIDHEDITKDKTSTVEACLPLELTKNESSLNSRETSFITNGSCLASRKTSFMMALCLSSIYEDLKMYQVEFKTMNAKLLMDPKRQIFLDQNMLAVIDELMQALNFNSETVPQKSSLEEPDFYKTKIKLCILLHAFRIRAVTIDRVMSYLNAS
